Test results as given in patent EP4613280A1 (Plantibodies, dated 2025).

Biological target: T1, murine PD-1 receptor (mouse, UniProt Q02242 25-288)
T1 construct: Endogenous protein in tissue lysates, detected as a 50 kDa band on a western blot; also called mouse PD-1; mouse PD-1 receptor
T1 sequence (looked up): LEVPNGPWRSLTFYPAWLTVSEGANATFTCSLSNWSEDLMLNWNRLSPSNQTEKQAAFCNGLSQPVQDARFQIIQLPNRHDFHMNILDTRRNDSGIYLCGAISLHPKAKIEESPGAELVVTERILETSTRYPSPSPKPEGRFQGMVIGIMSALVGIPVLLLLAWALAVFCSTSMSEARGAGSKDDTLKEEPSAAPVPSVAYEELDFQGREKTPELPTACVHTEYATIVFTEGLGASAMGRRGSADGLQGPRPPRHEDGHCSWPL
Test: western blot of mouse liver and lung lysates probed with nivolumab

binding result: binds
B1: human recombinant Nivolumab (Thermofischer MA5-41974) (antibody, human IgG4 S228P, kappa, V domains shown)
VH: QVQLVESGGGVVQPGRSLRLDCKASGITFSNSGMHWVRQAPGKGLEWVAVIWYDGSKRYYADSVKGRFTISRDNSKNTLFLQMNSLRAEDTAVYYCATNDDYWGQGTLVTVSS
VL: EIVLTQSPATLSLSPGERATLSCRASQSVSSYLAWYQQKPGQAPRLLIYDASNRATGIPARFSGSGSGTDFTLTISSLEPEDFAVYYCQQSSNWPRTFGQGTKVEIKR
notes: Bought reagent, described as a fully humanized monoclonal antibody produced in mammalian cells such as HEK293; also called human Nivolumab; mammalian cell produced nivolumab (anti-PD1)
